Article PMC11999149
Read-outs that look alike come from different tables or passages of the source.

How the values were obtained:
[1] = biological target: AR3A full-length IgG (reference); test: ELISA; details: IgG at its EC50; normalized using the signal of HCV1 at EC50
[2] = biological target: AR2A; test: ELISA; details: IgG at its EC50; normalized using the signal of HCV1 at EC50
[3] = biological target: membrane truncated soluble E2 (sE2, residues 384-645) of the H77 isolate (hepatitis C virus, isolate H77, genotype 1a) (UniProt P27958); test: SPR
[4] = biological target: membrane truncated soluble E2 (sE2, residues 384-645) of the H77 isolate (Hepatitis C virus genotype 1a, isolate H77) (UniProt P27958); test: SPR

| Substance | percent of parent [1] | percent of parent [2] | other results |
| --- | --- | --- | --- |
| detergent-extracted full-length E1/E2 of HCV isolate H77 (genotype 1a) (from UniProt P27958) R630A | 84 % WT | 43 % WT |  |
| detergent-extracted full-length E1/E2 of HCV isolate H77 (genotype 1a) (from UniProt P27958) L438A | 4 % WT | 88 % WT |  |
| detergent-extracted full-length E1/E2 of HCV isolate H77 (genotype 1a) (from UniProt P27958) W437A | 4 % WT | 98 % WT |  |
| detergent-extracted full-length E1/E2 of HCV isolate H77 (genotype 1a) (from UniProt P27958) G436A | 22 % WT | 123 % WT |  |
| Fab A2_11 (group II) (from UniProt P01857) |  |  | Kd ([3]; Fab): 0.66 nM; koff ([3]; Fab): 4.41e-05 s⁻¹ |
| detergent-extracted full-length E1/E2 of HCV isolate H77 (genotype 1a) (from UniProt P27958) K628A | 63 % WT | 24 % WT |  |
| detergent-extracted full-length E1/E2 of HCV isolate H77 (genotype 1a) (from UniProt P27958) T625A | 12 % WT | 28 % WT |  |
| Fab A3_9 (from UniProt P01857) |  |  | Kd ([3]; Fab): 1.6 nM; koff ([3]; Fab): 0.000119 s⁻¹ |
| detergent-extracted full-length E1/E2 of HCV isolate H77 (genotype 1a) (from UniProt P27958) F627A | 68 % WT | 38 % WT |  |
| Fab B1_9 (group II) (from UniProt P01857) |  |  | Kd ([3]; Fab): 2.62 nM; koff ([3]; Fab): 0.000299 s⁻¹ |
| AR3A Fab (reference) |  |  | Kd [4]: 10 nM |
| detergent-extracted full-length E1/E2 of HCV isolate H77 (genotype 1a) (from UniProt P27958) Y485A | 76 % WT | 94 % WT |  |
| Fab A8_9 (group III) (from UniProt P01857) |  |  | Kd ([3]; Fab): 4.02 nM; koff ([3]; Fab): 0.000299 s⁻¹ |
| detergent-extracted full-length E1/E2 of HCV isolate H77 (genotype 1a) (from UniProt P27958) F442A | 2 % WT | 71 % WT |  |
| detergent-extracted full-length E1/E2 of HCV isolate H77 (genotype 1a) (from UniProt P27958) N428A | 6 % WT | 70 % WT |  |
| Fab #2 (group I) (from UniProt P01857) |  |  | Kd ([3]; Fab): 0.19 nM; koff ([3]; Fab): 2.08e-05 s⁻¹ |
| detergent-extracted full-length E1/E2 of HCV isolate H77 (genotype 1a) (from UniProt P27958) C429A | 3 % WT | 43 % WT |  |
| Fab B1_11 (group I) (from UniProt P01857) |  |  | Kd ([3]; Fab): 0.485 nM; koff ([3]; Fab): 3.33e-05 s⁻¹ |
| detergent-extracted full-length E1/E2 of HCV isolate H77 (genotype 1a) (from UniProt P27958) G440A | 10 % WT | 79 % WT |  |
| detergent-extracted full-length E1/E2 of HCV isolate H77 (genotype 1a) (from UniProt P27958) L427A | 7 % WT | 67 % WT |  |
| A3_9 full-length IgG1 (from UniProt P01857) |  |  | Kd [3]: 0.0448 nM; koff [3]: 1.02e-05 s⁻¹ |
| detergent-extracted full-length E1/E2 of HCV isolate H77 (genotype 1a) (from UniProt P27958) T425A | 6 % WT | 77 % WT |  |
| detergent-extracted full-length E1/E2 of HCV isolate H77 (genotype 1a) (from UniProt P27958) L441A | 5 % WT | 85 % WT |  |
